Data from the RNAGym collection of RNA variant scans (doi:10.1073/pnas.2313332121).

B1: TPR t1 (parent)
chain: GACCAAUCUGCCCUCAGAGCUCGAGAACAUCUUCGGAUGCAGAGGAGGCAGGCUUCGGUGGCGCGAUAGCGCCAACGUCCUCAACCUCCAAUGCAUCCCACCACAUGAUGAUGCCUGAAGAGCCUUGGUUUUUUG

Variants of: B1
Experiment: polymerase ribozyme fitness, log enrichment relative to wild type (log ratio); higher = more active; in vitro selection for triplet polymerase activity
Summary of the method: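 Fitness compares each genotype's enrichment to that of the wild type on a logarithmic scale, averaging replicates with inverse-variance weights. The logarithm is base 2. Enrichment came from Illumina sequencing of input and output libraries after one triplicate round of in vitro selection, which included frozen incubation at −7 °C, of PCR-built, transcribed mutant libraries of each subunit of a heterodimeric triplet polymerase ribozyme. Only genotypes with ≥10 input reads and ≥1 read per output were kept.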

Variant | polymerase ribozyme fitness (log ratio)
GACCAAUCUGCCCUCAGAGCUCGAGAACAUCUUCGGAUGCAGAGGAGGCAGGCUUCGGUGGCGCGAUAGCGCCAACGUCCUCAACCUCCAAUGCAUCCCACCACAUGAUGAUGCCUGAAGAACCUUGGUCUUUUG [G122A U130C] | -0.597
GACCAAUCUGCUCUUAGAGCUCGAGAACAUCUUCGGAUGCAGAGGAGGCAGGCUUCGGUGGCGCGAUAGCGCCAACGUCCUCAACCUCCGAUGCAUCCCCCCACAUGAUGAUGCCUGAAGAGCCUUGGUUUUUUG [C12U C15U A90G A100C] | -1.2
GACCAAUCUGCCUUCAGAGCUCGAGAACAUCUUCGCAUGCAGAGGAGGCAGGCUUCGGUGGCGCGAUAGCGCCCACGUCCUCAACCUCCAAUGCAUCCCACCACAUGAUGAUGCCUGAAGAGCCUUGGUUUUUUG [C13U G36C A74C] | 0.0868
GACCAAUCUGCCCUCAGAGCUCGAGAACAUCUUCGGAUGCAGUGGAGGCAGGCUUCGGUGGCUCGAUAGCGCCAACGUCCUCAACCUCCAAUGCAUCCCACCACAUGAUGAUGCCUGAAGAGCCUUGGUUUUUUG [A43U G63U] | -3.68
GACCAAUCUGCCCUCAGAGCUCGAGAACAUCUUCGGAUGCAGAGGAGGCAGGCUUCGGUGGCGCGAUAGGGCCAACGUCCUCAACCUCCAAUGCAUCCCACCACAUGAUGGUGCCUGAAGAGCCUUGGUUUUUUG [C70G A111G] | -3.21
GACCAAUCUGCCCUCAGAGCUCGAGAACAUCUUCGGAUGCAGAGGAGGCAGGCUUCGGUGGCGCGAUAGUGCCAACGUCCUCAACCUCCAAUGCAUCCCACCACAUGAUGAUGCCUGAAGAGCAUUGGUUUUUUG [C70U C124A] | 1.38
GACCAAUCUGCCCUCAGAGCUCGAGAUCAUCUUCGGAUGCAGAGGAGGCAGGCUUCGGUGGCGCGAUAGCGCCAACGUCCUCAACCUCCAAUGCAUCCCACCACAUGAUGAUGCCUGAAGAGCCUUGGUUCUUUG [A27U U131C] | -2.91
GACCAAUCUGCCCUCAGAGCUCGAGAACAUCUUCGGAUGCAGAGGAGGCAGGCUUAGGUGGCGCGAUAGCGCCAACGUCCUCAACCUUCAAUGCAUCCCACCACAUGAUGAUGCCUGAAGAGCCUUGGUUUUUUG [C56A C88U] | -0.627
GACCAAUCGGCCCUCAGAGCUCGAGAACAUCUUCGGAUACAGAGGAGGCAGGCUUCGGUGGCGUGAUAGCGCCAACGUCCUCAACCUCCAAUCGAUCCCACCACAUGAUGAUGCCUGAAGAGCCUUGGUUUUUUG [U9G G39A C64U G93C C94G] | -4.56
GACCAAUCUGCCCUCAGAGCUCGAGAACAUCUUCGGAUGCAGAGGAGGCAGGCUUCGGUGGCGCGAUAGCGCCAACGUCCCCAACCUCCAAUGCAUCCCACCACAUGAUGAUGCCUAAUGAGCCUUGGUUUUUUG [U81C G117A A119U] | -3.73
GACCAAUCUGCCCUAAGAGCUCGAGAACAUCUUCGGAUGCAGAGGAGGCAGGCUUCGGUGGCGCGAUAGCGCCAACGUCCUCAACCUCCAACGCAUCCCACCACAUGAUCAUGCUUGAAGAGCCUUUGUUUUUUG [C15A U92C G110C C115U G127U] | -6
GACCCAUCUGCCCUAAGAGCUCGAGAACAUCUUCGGAUGCAGAGGAGGCAGGCUUCGGUGGCGUGAUAGCGCCAACGUCCCCAACCUUCAAUGCAUCCCACCACAUGAUGAUGCCUGAAGAGCCUUGGUUUUUUG [A5C C15A C64U U81C C88U] | -3.57
GACCAAUCUGCCCUCAGAGCUCGAGAGCUUCUUCGGAUGCAGAGGAGGCAGGCUUCGGUGGCGCGAUAGCGCUAACGUCCUCAACCUCCAAUGCAUCCCACCACAUGAUGAUGCCUGAAGAGCCAUGGUUUUUUG [A27G A29U C73U U125A] | -3.73
GACCAAUCUGCCCUCAGAGCUCGAGAACAUCUUCGGAUGCAGAGGAGGCAGGCUUCUGUGGCGCGAUAGCGCCAACGUCCUCAACCUCCAAUGCAUCCCACCACAUGAUGAUUCCUGAAGAGCCUUGGUUUUUUG [G57U G113U] | -1.79
GACCAAUCUGCCCUCACAGCUCGAGAACAUCUUCGGAUGCAGAGGAGGCAGGCUUCGGUGGCGCGAUAUCGCCAACGUGCUCAACCUCCAAUGCAUCCCACCACAUGAUGAUGCCUGAAGAGCCUUGGUUUUUUG [G17C G69U C79G] | -4.17
GACCAAUCUGCCCUCAGAGCUCGAGAACAUCUUCGGAUGCAGAGGAGGCAGGCUUCGGUGGCGCGAUAGCGCCAACGUCCUCAACCUCCAAUGCAUACCACCACAUGAUGAUGCCUUAAGAGCCUUGGUUUUUUG [C97A G117U] | -5.67
GACCAAUCUGCCCUCAGAGCUCGAGAACAUCCUCGGAUGCAGAGGAGACAGUCUUCGGUGGCGCGAUAGCGCCAACGUCCUCAACCUCCAAUGCAUCCCACCACAUGAUGAUGACUGAAGAGCCUUGGUUUUUUG [U32C G48A G52U C114A] | -4.17
GACCAAUUUGUCCUCAGAGCUCGAGAACAUCUUCGGAUGCAGAGGAGGCAGGCUUCGGUGGCGCGAUAGCGCCAACGUCCUCAACCUCCAAUUCAUCCCACCACAUGAUGAUGCCUGAAGAGCCUUGGUUUUUUG [C8U C11U G93U] | -1.31
GACCAAUGUGCUCUCAGAGCUCGAGAACAUCUUCGGAUGCACAGGAGGCAGGCUUCGGUGGCGCGAUAGCGCCAACGUCCUCAACCUCCAAUACAUCCCACCACAUGAUGAUGCCUGAAGAGCCUUGGUUUUUUG [C8G C12U G42C G93A] | -2.42
GACCAAUCUGCCCUCAGAGCUCGAGAACAUCUUCGGAUGCAGAGGAGGCAGGCUUUGGUGGCGCGAUAGCGCCAACGUCCUCAACCUCCAAUGCAUCCCAACACAUGAUGAUGACUGAAGAGCCUUGGUUUUUUG [C56U C101A C114A] | -2.61
GACCAAUCUGCCCUAAGAGCUCGAGAACAUCUUCGGAUGCAGAGGAGGCAGGCUUCGGUGGCGCGAUAGCGCCAACGUCCUCAACCUCCAAUGCAUCCCACCACAUGAUGAUGCCUGAAGAGCCUUGGUUUUUUU [C15A G135U] | -2.9
